Measured values from US7267993 (AUBURN UNIVERSITY, dated 2007).

Experiments:
[1] = target: β-galactosidase from Escherichia coli (Escherichia coli) [β-galactosidase: P00722]; assay: direct ELISA: phage immobilized in wells, unlabeled β-galactosidase in solution at varied concentration [bottom panel]
neutravidin = target: T1, neutravidin (chicken (stated for avidin), UniProt P02701 25-152); assay: direct ELISA: phage immobilized in wells, alkaline phosphatase-labeled neutravidin in solution at varied concentration [top panel]
T1 construct: Labeled with alkaline phosphatase in the ELISA; also called alkaline phosphatase-labeled neutravidin; avidin (from chicken egg white)
Text: (§1) Each binding curve is labeled with the altered amino acid sequence of the foreign peptide carried by the phage being tested (V_o=vector control). ELISA signal (mOD/min) is shown as a function of ligand concentration (micrograms/ml for top two panels; nanomolar for bottom panel).
(§2) *Escherichia coli*). Each protein was absorbed to the surface of a 35-mm polystyrene Petri dish and exposed to the phage library. Unbound phage were washed away, and bound phage was eluted with acid buffer and amplified by infecting fresh bacterial host cells. […] The selected phage were further characterized by enzyme linked immuno sorbent assay (ELISA) in which the phage were immobilized on the plastic surface of ELISA wells and reacted with the ligands in solution phase. Neutravidin and streptavidin were labeled with alkaline phosphatase, while β-galactosidase was unlabeled. […] Inhibition ELISAs verified that non-immobilized peptide-bearing phage compete with immobilized phage for binding to their respective ligands.

[2] = target: T2, β-galactosidase from Escherichia coli (Escherichia coli, UniProt P00722 2-1024 = β-galactosidase); assay: direct ELISA: phage immobilized in wells, unlabeled β-galactosidase in solution at varied concentration [bottom panel]
T2 construct: Unlabeled in the ELISA; in solution in all assays; also called b-galactosidase
Text: as §1, §2

T2 sequence (P00722 2-1024 limits assumed): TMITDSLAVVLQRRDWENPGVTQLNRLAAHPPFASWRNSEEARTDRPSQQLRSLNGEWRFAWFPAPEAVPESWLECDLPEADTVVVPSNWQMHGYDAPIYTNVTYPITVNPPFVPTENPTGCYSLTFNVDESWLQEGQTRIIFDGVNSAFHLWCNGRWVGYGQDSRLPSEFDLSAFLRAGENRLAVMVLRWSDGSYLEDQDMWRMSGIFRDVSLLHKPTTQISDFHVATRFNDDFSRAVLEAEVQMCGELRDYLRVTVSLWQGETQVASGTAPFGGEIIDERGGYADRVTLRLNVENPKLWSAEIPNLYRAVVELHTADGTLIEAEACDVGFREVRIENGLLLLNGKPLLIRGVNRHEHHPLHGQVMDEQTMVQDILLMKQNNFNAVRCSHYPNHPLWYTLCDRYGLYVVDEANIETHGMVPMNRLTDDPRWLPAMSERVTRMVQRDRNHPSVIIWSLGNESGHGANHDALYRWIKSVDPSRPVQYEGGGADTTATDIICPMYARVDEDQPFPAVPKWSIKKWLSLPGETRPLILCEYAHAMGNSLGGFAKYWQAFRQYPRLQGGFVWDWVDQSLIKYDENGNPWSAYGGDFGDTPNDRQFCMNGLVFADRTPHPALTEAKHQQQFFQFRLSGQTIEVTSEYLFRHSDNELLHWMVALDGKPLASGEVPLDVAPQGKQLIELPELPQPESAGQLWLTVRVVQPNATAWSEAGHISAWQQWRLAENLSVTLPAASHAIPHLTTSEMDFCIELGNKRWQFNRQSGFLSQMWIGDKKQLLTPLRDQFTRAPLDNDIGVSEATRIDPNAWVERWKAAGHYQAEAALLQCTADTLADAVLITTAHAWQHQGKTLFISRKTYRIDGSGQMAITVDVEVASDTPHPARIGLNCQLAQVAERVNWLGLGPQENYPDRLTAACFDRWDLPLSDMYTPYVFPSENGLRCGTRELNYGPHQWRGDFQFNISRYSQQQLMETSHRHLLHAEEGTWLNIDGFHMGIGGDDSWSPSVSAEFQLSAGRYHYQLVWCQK
T1 sequence (P02701 25-152 limits assumed): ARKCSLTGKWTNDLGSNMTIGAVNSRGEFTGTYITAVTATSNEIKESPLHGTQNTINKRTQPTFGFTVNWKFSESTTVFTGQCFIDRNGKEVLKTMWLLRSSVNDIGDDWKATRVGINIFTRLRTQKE
β-galactosidase from Escherichia coli (Escherichia coli) [β-galactosidase: P00722], sequence (P00722 2-1024 limits assumed): as the sequence (P00722 2-1024 limits assumed) above

VTFAAANT
EC50 (read off the curve) [1]: 100 nM

B1: VPEYTGPS (other)
major coat protein pVIII carrying the foreign peptide: VPEYTGPS
notes: landscape phage immobilized in ELISA wells; belongs to group m4
EC50 (read off the curve) (neutravidin): ~3 micrograms/ml

B2: DTFAKSMQ (other)
major coat protein pVIII carrying the foreign peptide: DTFAKSMQ
notes: landscape phage immobilized in ELISA wells
EC50 (read off the curve) [2]: ~60 nM

B3: EKTLAYNQ (other)
major coat protein pVIII carrying the foreign peptide: EKTLAYNQ
notes: as for B2
EC50 (read off the curve) [2]: ~40 nM

B4: EKTLAYSQ (other)
major coat protein pVIII carrying the foreign peptide: EKTLAYSQ
notes: as for B2
EC50 (read off the curve) [2]: ~70 nM

B5: VPEYKGAS (other)
major coat protein pVIII carrying the foreign peptide: VPEYKGAS
notes: as for B1
EC50 (read off the curve) (neutravidin): ~3 micrograms/ml
